Test results reported in article PMC4126377.
Blank lines part the entries; values can stand above or below the substance they belong to.

Biological target: α- and β-tropomyosin
Assay: GST pull-down
Settings: all curves start at 1 at 7.5 µg, read off a plot

response (relative intensity) (sub-panel NEB ex54 (super repeat 9), curve 54m, 15 µg α- and β-tropomyosin, parent: est. 1.25): 1.27
response (relative intensity) (sub-panel NEB ex54 (super repeat 9), curve 54m, 30 µg α- and β-tropomyosin, parent: est. 1.30): 1.36
response (relative intensity) (sub-panel NEB ex54 (super repeat 9), curve 54m, 60 µg α- and β-tropomyosin, parent: est. 1.30): 1.37
Substance: GST-nebulin super repeat 9 (S9), wild type (from UniProt P20929-3) p.Glu2431Lys

response (relative intensity) (sub-panel NEB ex122 (super repeat 18), curve 122m, 15 µg α- and β-tropomyosin, parent: est. 1.07): 1.08
response (relative intensity) (sub-panel NEB ex122 (super repeat 18), curve 122m, 30 µg α- and β-tropomyosin, parent: est. 1.18): 1.19
response (relative intensity) (sub-panel NEB ex122 (super repeat 18), curve 122m, 60 µg α- and β-tropomyosin, parent: est. 1.18): 1.2
Substance: GST-nebulin super repeat 18 (S18), wild type (from UniProt P20929-3) p.Ser6366Ile

response (relative intensity) (sub-panel NEB ex151 (super repeat 22), curve 151m, 15 µg α- and β-tropomyosin, parent: est. 1.28): 1.12
response (relative intensity) (sub-panel NEB ex151 (super repeat 22), curve 151m, 30 µg α- and β-tropomyosin, parent: est. 1.33): 1.17
response (relative intensity) (sub-panel NEB ex151 (super repeat 22), curve 151m, 60 µg α- and β-tropomyosin, parent: est. 1.34): 1.18
Substance: GST-nebulin super repeat 22 (S22), wild type (from UniProt P20929-3) p.Thr7382Pro
